B1: wild type NSP3 (non-structural protein 3) of simian species A rotavirus strain RRV [simian rotavirus A strain RRV] / itself (parent complex)
chain: MESTQQMASSIINSSFEAAVVAATSTLELMGIQYDYNEVYTRVKSKFDLVMDDSGVKNNLIGKAITIDQALNGKFSSAIRNRNWMTDSRTVAKLDEDVNKLRIMLSSKGIDQKMRVLNACFSVKRIPGKSSSIVKCTRLMKDKLERGEVEVDDSFVEEKMEVDTIDWKSRYEQLEKRFESLKHRVNEKYNHWVLKARKVNENMNSLQNVISQQQAHINELQMYNNKLERDLQSKIGSVVSSIEWYLRSMELSDDVKSDIEQQLNSIDQLNPVNAIDDFESILRNLISDYDRLFIMFKGLLQQCNYTYTYE

Variants of: B1
Experiment: non-dissociating Western blot (WB-ND) densitometry; parent: 1; read off a plot

| Variant | ratio to parent |
| --- | --- |
| MESTQQMASSIINSSFEAAVVAATSTLELMGIQYDYNEVYTRVKSKFDLVMDDSGVKNNLIGKAITIDQALNGKFSSAIRNRNWMTDSRTVAKLDEDVNKLRIMLSSKGIDQKMRVLNACFSVKRIPGKSSSIVKCTRLMKDKLERGEVEVDDSFVEEKMEVDTIDWKSRYEQLEKRFESLKHEVNEEYNHWVLKARKVNENMNSLQNVISQQQAHINELQMYNNKLERDLQSKIGSVVSSIEWYLRSMELSDDVKSDIEQQLNSIDQLNPVNAIDDFESILRNLISDYDRLFIMFKGLLQQCNYTYTYE [chain 1 R184E, chain 1 K188E] | ~0.13 |
| MESTQQMASSIINSSFEAAVVAATSTLELMGIQYDYNEVYTRVKSKFDLVMDDSGVKNNLIGKAITIDQALNGKFSSAIRNRNWMTDSRTVAKLDEDVNKLRIMLSSKGIDQKMRVLNACFSVKRIPGKSSSIVKCTRLMKDKLERGEVEVDDSFVEEKMEVDTIDWKSEYEQLEKRFESLKHRVNEKYNHWVLKARKVNENMNSLQNVISQQQAHINELQMYNNKLERDLQSKIGSVVSSIEWYLRSMELSDDVKSDIEQQLNSIDQLNPVNAIDDFESILRNLISDYDRLFIMFKGLLQQCNYTYTYE [chain 1 R170E] | ~0.17 |
| MESTQQMASSIINSSFEAAVVAATSTLELMGIQYDYNEVYTRVKSKFDLVMDDSGVKNNLIGKAITIDQALNGKFSSAIRNRNWMTDSRTVAKLDEDVNKLRIMLSSKGIDQKMRVLNACFSVKRIPGKSSSIVKCTRLMKDKLERGEVEVDDSFVEEKMEVDTIDWKSRYEQLEKRFESLKHRVNEKANHWVLKARKVNENMNSLQNVISQQQAHINELQMYNNKLERDLQSKIGSVVSSIEWYLRSMELSDDVKSDIEQQLNSIDQLNPVNAIDDFESILRNLISDYDRLFIMFKGLLQQCNYTYTYE [chain 1 Y189A] | ~1.8 |
| MESTQQMASSIINSSFEAAVVAATSTLELMGIQYDYNEVYTRVKSKFDLVMDDSGVKNNLIGKAITIDQALNGKFSSAIRNRNWMTDSRTVAKLDEDVNKLRIMLSSKGIDQKMRVLNACFSVKRIPGKSSSIVKCTRLMKDKLERGEVEVDDSFVEEKMEVDTIDWESRYEQLEKRFESLKHRVNEKYNHWVLKARKVNENMNSLQNVISQQQAHINELQMYNNKLERDLQSKIGSVVSSIEWYLRSMELSDDVKSDIEQQLNSIDQLNPVNAIDDFESILRNLISDYDRLFIMFKGLLQQCNYTYTYE [chain 1 K168E] | ~0.32 |

Reference: PMC5524322, “Species A rotavirus NSP3 acquires its translation inhibitory function prior to stable dimer formation” (PLoS ONE, 2017)
